Four molecules from patent US11584938B2, “Plant EPSPS mutant containing L195P and S247G mutations and encoding gene and use thereof” (GEVOTO LLC, priority 2017, dated 2023) can be followed below.

The series deals with double knockout E. coli (EPSPS defective E. coli, EDCE). Kind of series: growth of EPSPS defective E. coli transformed by the EPSPS gene in M9 culture media containing different glyphosate concentrations. The format is cell-based, E. coli DH5α. The following applies: for EPSPS enzyme activity: concluded from growth of defective E. coli at 0 mM glyphosate. The source says:
A method for detecting the glyphosate resistance of the soybean EPSPS mutant G1 provided in Example 1 and the soybean EPSPS mutant G3 provided in Example 2 is as follows:
according to the sequence of the nucleic acid molecule provided in the example, synthesizing the encoding gene that encodes the soybean EPSPS mutant G1 or G3 using a chemical synthesis method, introducing enzyme sites (Pac1 and Sbf1) at two ends thereof, connecting to an expression vector (for example, a pADV5 vector, the structure of which is as shown in FIG. 15) that has undergone the same restriction enzyme digestion treatment under the action of ligase after restriction enzyme digestion, then transforming double knockout E. coli, picking positive colonies after verification, inoculating the positive colonies to M9 culture media containing different glyphosate concentrations for growth, and observing the growth situation of the E. coli.
The wild-type soybean EPSPS (with an amino acid sequence represented by SEQ ID NO: 2 and an encoding gene sequence represented by SEQ ID NO: 1) and the soybean EPSPS mutant G2 (with an amino acid sequence represented by SEQ ID NO: 6, and a corresponding encoding gene sequence represented by SEQ ID NO: 5) merely containing the mutation P114(101)S were taken as controls.
In the above, the M9 basal culture medium can be prepared by the following method:
5×M9 salt solution: 6.78 g of Na2HPO4, 3.0 g of KH2PO4, 0.5 g of NaCl, and 1.0 g of NH4Cl were weighed, added with ddH2O to 200 ml, and subjected to high-temperature and high-pressure sterilization treatment;
20% glucose: 20 g of glucose was weighed, added with 80 ml of ddH2O for dissolving, diluted to 100 ml, and subjected to filtration and sterilization treatment;
1.0 M MgSO4: 24.6 g of MgSO4-7H2O was weighed, dissolved with 80 ml of ddH2O, diluted to 100 ml, and subjected to sterilization treatment;
1.0 M CaCl2: 11.1 g of CaCl2 was weighed, dissolved with 80 ml of ddH2O, diluted to 100 ml, and subjected to sterilization treatment; and
1000 ml of the M9 basal culture media were prepared by adding ddH2O to 200 ml of 5×M9 salt solution, 20 ml of 20% glucose, 2 ml of 1.0 M MgSO4 and 0.1 ml of 1.0 M CaCl2 to make up to 1000 ml.
In the above, the E. coli used was double knockout E. coli, namely, EPSPS defective E. coli (E. coli DH5α with EPSPS gene and C-P Lyase gene being knocked out, named as EDCE, wherein for a preparation method thereof, reference can be made to a Chinese invention patent with the filing number CN2016103256926).
The glyphosate resistance of the soybean EPSPS mutant G4 provided in Example 3 and the soybean EPSPS mutant G5 provided in Example 4 was verified with reference to the detection method in Experiment Example 1.
The wild-type wheat EPSPS (with an amino acid sequence represented by SEQ ID NO: 14, and a corresponding encoding gene sequence represented by SEQ ID NO: 13) and the wheat EPSPS mutant T2 (with an amino acid sequence represented by SEQ ID NO: 18, and a corresponding encoding gene sequence represented by SEQ ID NO: 17) merely containing the mutation P118(101)S were taken as controls to verify the glyphosate resistance of the wheat EPSPS mutants T1 and T3 provided in Example 5 and Example 6, and reference can be made to Experiment Example 1 for the method.
A method for verifying the glyphosate resistance of the wheat EPSPS mutants T4, T5, and T6 provided in Examples 7-9 is the same as that in Experiment Example 3.
The wild-type rice EPSPS R0 (with an amino acid sequence represented by SEQ ID NO: 28, and a corresponding encoding gene sequence represented by SEQ ID NO: 27) and the rice EPSPS mutant R2 (with an amino acid sequence represented by SEQ ID NO: 32, and a corresponding encoding gene sequence represented by SEQ ID NO: 31) merely containing the mutation P116(101)S were taken as controls to verify the glyphosate resistance of the rice EPSPS mutants R1 and R3 provided in Examples 10 and 11, and reference can be made to Experiment Example 1 for the method. […]

The mark [1] stands for this setting: culture media containing 0 mM glyphosate.
Setting [2] is: culture media containing 5 mM glyphosate.
The mark [3] stands for this setting: culture media containing 10 mM glyphosate.
[4] abbreviates: culture media containing 20 mM glyphosate.

Substitutions are numbered along the chain they refer to. “Also recorded” adds a separate entry of the source.

B1: R0: wild-type rice EPSPS, amino acid sequence SEQ ID NO: 28; control (protein, listed as Oryza sativa)
chain: MASNAAAAAAKAEEIVLQPIREISGAVQLPGSKSLSNRILLLSALSEGTTVVDNLLNSEDVHYMLEALKALGLSVEADKVAKRAVVVGCGGKFPVEKDAKEEVQLFLGNAGTAMRPLTAAVTAAGGNATYVLDGVPRMRERPIGDLVVGLKQLGADVDCFLGTECPPVRVKGIGGLPGGKVKLSGSISSQYLSALLMAAPLALGDVEIEIIDKLISIPYVEMTLRLMERFGVKAEHSDSWDRFYIKGGQKYKSPGNAYVEGDASSASYFLAGAAITGGTVTVQGCGTTSLQGDVKFAEVLEMMGAKVTWTDTSVTVTGPPREPYGKKHLKAVDVNMNKMPDVAMTLAVVALFADGPTAIRDVASWRVKETERMVAIRTELTKLGASVEEGPDYCIITPPEKLNITAIDTYDDHRMAMAFSLAACADVPVTIRDPGCTRKTFPNYFDVLSTFVRN
In the case of B1, the “growth of the E. coli transformed by the EPSPS” value (shortened to “growth … by the EPSPS”) is, setting by setting: under setting [1], “could grow”; under setting [2], “could not grow”; under setting [3], “could not grow”.

B2: R2: rice EPSPS mutant, SEQ ID NO: 32, merely containing the mutation P116(101)S; control (protein)
chain: B1 chain with P116S
Regarding B2, the EPSPS enzyme activity result is listed as “normal EPSPS enzyme activity”. Moreover, under setting [1], the “growth … by the EPSPS” value is “could grow”. The “growth … by the EPSPS” value under setting [3] is listed as “could grow”. The “growth … by the EPSPS” value under setting [4] is listed as “could grow”.

B3: R1: rice EPSPS mutant, SEQ ID NO: 30, mutation L214(195)P (protein)
chain: B1 chain with L214P
On to B3, for which the EPSPS enzyme activity entry is “normal EPSPS enzyme activity”. Also, under setting [1], the “growth … by the EPSPS” value was “could grow”. Under setting [2], the “growth … by the EPSPS” value is “could grow normally”. Moreover, the “growth … by the EPSPS” value under setting [3] is on record as “grew obviously; also recorded: could grow normally”. In addition, the “growth … by the EPSPS” value under setting [4] is “grew obviously”.

B4: T6: wheat EPSPS mutant, SEQ ID NO: 26, mutations L216(195)P, S269(247)G and P118(101)S (protein)
chain: MATSVAAPAAPAGAEEVVLQPIREISGAVQLPGSKSLSNRILLLSALSEGTTVVDNLLNSEDVHYMLEALEALGLSVEADKVAKRAVVVGCGGRFPVEKDAKEEVKLFLGNAGTAMRSLTAAVVAAGGNATYVLDGVPRMRERPIGDLVVGLQQLGADVDCFLGTNCPPVRINGKGGLPGGKVKLSGSISSQYLSSLLMAAPLALEDVEIEIIDKPISVPYVEMTLKLMEHFGVTAEHSDSWDRFYIKGGQKYKSPGNAYVEGDASSAGYFLAGAAITGGTVTVEGCGTTSLQGDVKFAEVLEMMGAKVTWTDTSVTVTGPPRQPFGRKHLKAVDVNMNKMPDVAMTLAVVALFADGPTAIRDVASWRVKETERMVAIRTELTKLGATVEEGPDYCIITPPEKLNITAIDTYDDHRMAMAFSLAACAEVPVTIRDPGCTRKTFPNYFDVLSTFVKN
As for B4, the EPSPS enzyme activity entry was “normal EPSPS enzyme activity”. The “growth … by the EPSPS” value under setting [1] was “could grow”. For the same molecule, the “growth … by the EPSPS” value (culture media containing 1 mM glyphosate) was “could grow normally”. Moreover, under setting [2], the “growth … by the EPSPS” value is given as “could grow” and the “growth of the transformed E. coli compared with E. coli transformed by the control EPSPS named in the value” is reported as “obviously superior to that of the E. coli transformed by T2”. For the same molecule, under setting [4], the “growth … by the EPSPS” value was “could grow” and the “growth of the transformed E. coli compared with E. coli transformed by the control EPSPS named in the value” is recorded as “obviously superior to that of the E. coli transformed by T2”.
